Molecular target: human protein kinase R (PKR) (human) (UniProt P19525)
Test: cell-based or functional assay

Chain of UniProt P19525 (P19525 2-551 limits assumed): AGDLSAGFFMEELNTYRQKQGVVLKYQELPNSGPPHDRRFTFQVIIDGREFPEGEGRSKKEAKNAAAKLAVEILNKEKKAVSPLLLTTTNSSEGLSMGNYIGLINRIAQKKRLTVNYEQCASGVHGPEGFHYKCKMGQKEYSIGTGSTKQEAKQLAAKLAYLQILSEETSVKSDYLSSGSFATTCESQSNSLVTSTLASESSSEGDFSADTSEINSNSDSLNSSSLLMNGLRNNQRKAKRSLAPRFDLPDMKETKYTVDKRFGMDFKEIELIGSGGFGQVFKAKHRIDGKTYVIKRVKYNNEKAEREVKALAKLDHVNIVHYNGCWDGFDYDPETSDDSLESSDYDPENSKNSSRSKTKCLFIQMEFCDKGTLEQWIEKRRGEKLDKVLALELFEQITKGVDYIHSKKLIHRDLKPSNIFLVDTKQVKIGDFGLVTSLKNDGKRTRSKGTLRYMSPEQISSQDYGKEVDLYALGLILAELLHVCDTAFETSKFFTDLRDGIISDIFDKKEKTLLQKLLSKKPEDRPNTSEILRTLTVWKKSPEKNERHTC

Substance	virus titre increase between 5 hpi and 48 hpi in HeLa cells
sheeppox virus 011 (K3 ortholog)	> 10 fold
taterapox virus 037 (K3 ortholog)	> 10 fold

— US20210244739A1
